Assay results published in PMC10154233, “Structure, sequon recognition and mechanism of tryptophan C-mannosyltransferase” (Nature Chemical Biology, 2023).
Square brackets hold non-standard residues; d marks the D form. Pra = C#CC[C@H](N)C(=O)O

T1: C. elegans DPY19 (CeDPY19), tryptophan C-mannosyltransferase, with a C-terminal FLAG3 tag (C. elegans, UniProt P34413 1-683)
T1 construct: C. elegans DPY19 (CeDPY19), synthetic gene construct; Eluted from the FLAG gel with FLAG peptide; no cleavage of the tag is described; also called CMT
T1 sequence: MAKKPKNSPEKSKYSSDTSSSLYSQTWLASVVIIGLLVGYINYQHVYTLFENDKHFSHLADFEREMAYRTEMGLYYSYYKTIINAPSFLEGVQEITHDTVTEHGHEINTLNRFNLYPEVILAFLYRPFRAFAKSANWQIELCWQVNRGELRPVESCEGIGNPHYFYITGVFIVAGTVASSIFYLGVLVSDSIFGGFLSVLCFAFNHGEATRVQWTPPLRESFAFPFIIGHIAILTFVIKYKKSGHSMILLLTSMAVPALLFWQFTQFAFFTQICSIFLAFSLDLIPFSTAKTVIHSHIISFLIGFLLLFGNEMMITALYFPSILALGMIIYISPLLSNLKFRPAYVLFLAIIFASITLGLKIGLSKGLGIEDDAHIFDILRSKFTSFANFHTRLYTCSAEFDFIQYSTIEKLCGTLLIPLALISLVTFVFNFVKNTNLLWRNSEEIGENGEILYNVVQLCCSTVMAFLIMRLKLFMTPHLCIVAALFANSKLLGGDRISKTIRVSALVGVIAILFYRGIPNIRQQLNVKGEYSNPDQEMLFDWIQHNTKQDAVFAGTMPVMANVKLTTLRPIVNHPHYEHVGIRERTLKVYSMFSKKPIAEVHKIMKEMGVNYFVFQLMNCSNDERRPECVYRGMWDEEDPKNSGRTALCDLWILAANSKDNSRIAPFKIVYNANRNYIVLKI


Experiments:
[1] = molecular target: T1, C. elegans DPY19 (CeDPY19), tryptophan …; experiment: cryo-EM structure; CeDPY19-CMT2-Fab-anti-Fab Nb complex (35 uM) with 1 mM acceptor peptide WEHI-1886493, 1-2 h on ice; details: both partners purified
[2] = molecular target: T2, Biotinylated C. elegans DPY19 (CeDPY19) with a C-terminal Avitag (Caenorhabditis elegans (strain not …, UniProt P34413, biotin (enzymatic, BirA) on the Avitag)); experiment: ELISA; multipoint protein ELISA; 30 nM biotinylated CeDPY19 immobilised on a neutravidin-coated plate, threefold serial dilutions of purified Fab from 4 uM, 20 min, 4 °C; 20 mM HEPES pH 7.4, 150 mM NaCl, 0.01% LMNG, 0.001% CHS, 0.5% BSA; detected with HRP-protein L; details: both partners purified
T2 construct: C. elegans DPY19 (CeDPY19); also called biotinylated CeDPY19; target; not shown: Avitag, C-terminal, kept

Binder	binding result [1]	EC50 [2] [nM]
Ac-[Pra]GSWAKWS-NH2 (SMILES C#CC[C@H](NC(C)=O)C(=O)NCC(=O)N[C@@H](CO)C(=O)N[C@@H](Cc1c[nH]c2ccccc12)C(=O)N[C@@H](C)C(=O)N[C@@H](CCCCN)C(=O)N[C@@H](Cc1c[nH]c2ccccc12)C(=O)N[C@@H](CO)C(N)=O, Eight residues in all: Pra (propargylglycine) followed by GSWAKWS; also called acceptor peptide; source: synthetic peptide) [Synthetic acceptor octapeptide WEHI-1886493 (Ac-Pra-GSWAKWS-NH2)]	binds	–
CMT2-Fab, synthetic Fab selected by phage display against CeDPY19 (Fab, V domains shown, source: E. coli C43 (Pro+), purified (Protein L, Resource S)) VH: EVQLVESGGGLVQPGGSLRLSCAASGFNISSSSIHWVRQAPGKGLEWVASISSSYGYTSYADSVKGRFTISADTSKNTAYLQMNSLRAEDTAVYYCARSSSVYWSWWGYSAFDYWGQGTLVTVSS VL: DIQMTQSPSSLSASVGDRVTITCRASQSVSSAVAWYQQKPGKAPKLLIYSASSLYSGVPSRFSGSRSGTDFTLTISSLQPEDFATYYCQQGASEPITFGQGTKVEIK	–	17
